Experimental data as given in paper PMC11500499, “Molecular dissection of the chromosome partitioning protein RocS and regulation by phosphorylation”.

Biological target: T1, RocS WT-ΔAH (Streptococcus pneumoniae R6, UniProt Q8DQ15 1-152)
T1 sequence: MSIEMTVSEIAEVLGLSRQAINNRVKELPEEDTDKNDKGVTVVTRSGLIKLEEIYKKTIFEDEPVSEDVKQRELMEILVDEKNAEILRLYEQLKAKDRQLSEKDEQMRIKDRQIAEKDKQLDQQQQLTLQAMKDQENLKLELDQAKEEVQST
Experiment: MST; MST: 25 mM Tris/HCl pH 7.5, 100 mM NaCl, 5% glycerol, 0.025% Tween-20, 25 C, 10 nM DNA probe; EMSA: 25 mM Tris/HCl pH 7.5, 100 mM NaCl, 5% glycerol, 100 ng DNA
Details: protein: recombinant; tags: C-terminal 6xHis, removed with TEV protease; label: 5' Cy5 on strand 1; blunt

B1: dnaC_Cy5 (dsDNA)
DNA 1: GTCAACCAAGCTTACGAAGCGTCACAACCAGCTGATGAAATTATTGCTCA
DNA 2: TGAGCAATAATTTCATCAGCTGGTTGTGACGCTTCGTAAGCTTGGTTGAC
Q: With B1 as the binder, how does the Kd read?
A: 34 µM
